Publication PMC12607630, “ZapC crosslinks FtsZ filaments through a dual-binding mechanism modulated by the intrinsically disordered linker of FtsZ in Escherichia coli” (mBio, 2025)
Where a chain is given by its changes, count along the chain named. Names and notes keep the numbering of the source. Values joined by “and” are separate entries in the source; they are usually repeats but may differ in a detail not shown here. Identical values can stand only once.

T1: FtsZ^F285S (untagged) (Escherichia coli, UniProt P0A9A6 1-383, F285S)
T1 construct: FtsZ, Escherichia coli; source: E. coli BL21(DE3), derivative of pLY17, purified (Ni-NTA; 6×His-SUMO tag removed with Ulp1); not shown: 6×His, N-terminal, cleaved; SUMO, N-terminal, cleaved
T1 sequence (looked up): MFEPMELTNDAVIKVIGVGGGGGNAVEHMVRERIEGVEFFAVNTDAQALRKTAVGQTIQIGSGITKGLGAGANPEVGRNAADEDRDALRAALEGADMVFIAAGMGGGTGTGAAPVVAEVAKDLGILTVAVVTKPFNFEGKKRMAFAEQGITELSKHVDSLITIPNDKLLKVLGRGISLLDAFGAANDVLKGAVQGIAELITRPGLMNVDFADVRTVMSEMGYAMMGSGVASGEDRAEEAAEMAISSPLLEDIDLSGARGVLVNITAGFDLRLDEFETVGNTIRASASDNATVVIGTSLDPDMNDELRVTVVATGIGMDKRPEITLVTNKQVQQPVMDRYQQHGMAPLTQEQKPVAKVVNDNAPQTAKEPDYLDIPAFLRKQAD

T2: FtsZ (untagged, wild type) (Escherichia coli, UniProt P0A9A6 1-383)
T2 construct: also called wild-type FtsZ; source: E. coli BL21(DE3), plasmid pLY17, purified (Ni-NTA); 6×His-SUMO tag removed with Ulp1; not shown: 6×His-SUMO, N-terminal, cleaved
T2 sequence (looked up): T1 sequence (looked up) with S285F

T3: 6×His-SUMO-FtsZ (Escherichia coli, UniProt P0A9A6 1-383)
T3 construct: FtsZ of Escherichia coli, full length, fused behind 6×His-SUMO; Forward primer BsaI-out-F starts the FtsZ insert at codon 2; source: E. coli BL21(DE3), plasmid pLY17, purified (Ni-NTA); not shown: 6×His-SUMO, N-terminal, kept
T3 sequence (looked up): T1 sequence (looked up) with S285F

T4: SUMO-FtsZ (Escherichia coli, UniProt P0A9A6 1-383)
T4 construct: FtsZ, Escherichia coli; also called 6×His-SUMO-FtsZ; SUMO fusion containing full-length FtsZ; source: E. coli BL21(DE3), plasmid pLY17 (pE-SUMO-Amp, PT7::6×his-sumo-ftsZ), purified (Ni-NTA); not shown: 6×His, N-terminal, kept; SUMO, N-terminal, kept
T4 sequence (looked up): T1 sequence (looked up) with S285F

B1: FtsZ (wild-type, untagged) (natural protein, Escherichia coli, UniProt P0A9A6 1-383, looked up)
chain: T1 sequence (looked up) with S285F
notes: FtsZ, Escherichia coli; Made from the same 6×his-sumo-ftsZ plasmid as the fusion that the methods call full-length FtsZ; also called wild-type FtsZ; untagged FtsZ; source: E. coli BL21(DE3), plasmid pLY17, purified (Ni-NTA; 6×His-SUMO tag removed with Ulp1); not shown: 6×His, N-terminal, cleaved; SUMO, N-terminal, cleaved
B2: 6×His-ZapC (natural protein)
chain: not shown
notes: ZapC, Escherichia coli; also called His-tagged ZapC; source: E. coli, plasmid pSD323 (pQE80, Plac::6×His-ZapC), purified (Ni-NTA) as for FtsZ; not shown: 6×His, N-terminal, kept
B3: 6×His-ZapC F30D, K94D (natural protein)
chain: not shown
notes: ZapC of Escherichia coli with F30D and K94D; Derivative of pSD323 by site-directed mutagenesis; also called ZapC^F, K; -ZapCF, K; source: E. coli, plasmid pLY317 (pQE80L, Plac::6Xhis-zapC F30D, K94D), purified (Ni-NTA); not shown: His6, N-terminal, kept
B4: ZapC (untagged) (natural protein)
chain: not shown
notes: ZapC, FtsZ-associated protein of Escherichia coli; source: E. coli BL21(DE3), plasmid pLY28, purified (Ni-NTA); 6×His-SUMO tag removed with Ulp1; not shown: 6×His-SUMO, N-terminal, cleaved
B5: ZapC (untagged) (natural protein)
chain: not shown
notes: ZapC, Escherichia coli; also called untagged ZapC; source: E. coli, plasmid pLY28 (pE-SUMO-Amp, PT7::6×his-sumo-zapC), purified (Ni-NTA; 6×His-SUMO tag removed with Ulp1); not shown: 6×His, N-terminal, cleaved; SUMO, N-terminal, cleaved
B6: 6×His-SUMO-FtsZ 316-383 (domain or fragment, Escherichia coli, UniProt P0A9A6 316-383, looked up)
chain: GMDKRPEITLVTNKQVQQPVMDRYQQHGMAPLTQEQKPVAKVVNDNAPQTAKEPDYLDIPAFLRKQAD
notes: source: E. coli BL21(DE3), plasmid pLY342, purified (Ni-NTA); not shown: 6×His-SUMO, N-terminal, kept
B7: SUMO-FtsZ^316-383 (domain or fragment, Escherichia coli, UniProt P0A9A6 316-383, looked up)
chain: B6 chain
notes: Held on Ni-NTA biosensors; plasmid construction is in the Supplemental Information; also called SUMO fusion containing the CTL and CTP; source: E. coli, purified SUMO fusion; not shown: 6×His, N-terminal, kept; SUMO, N-terminal, kept
B8: FtsZ^1–370 (domain or fragment, Escherichia coli, UniProt P0A9A6 1-370, looked up)
chain: MFEPMELTNDAVIKVIGVGGGGGNAVEHMVRERIEGVEFFAVNTDAQALRKTAVGQTIQIGSGITKGLGAGANPEVGRNAADEDRDALRAALEGADMVFIAAGMGGGTGTGAAPVVAEVAKDLGILTVAVVTKPFNFEGKKRMAFAEQGITELSKHVDSLITIPNDKLLKVLGRGISLLDAFGAANDVLKGAVQGIAELITRPGLMNVDFADVRTVMSEMGYAMMGSGVASGEDRAEEAAEMAISSPLLEDIDLSGARGVLVNITAGFDLRLDEFETVGNTIRAFASDNATVVIGTSLDPDMNDELRVTVVATGIGMDKRPEITLVTNKQVQQPVMDRYQQHGMAPLTQEQKPVAKVVNDNAPQTAKEPD
notes: FtsZ, Escherichia coli, residues 1-370; Plasmid construction is in the Supplemental Information; also called FtsZ lacking the CTP; source: E. coli BL21(DE3), SUMO-tag purification system, purified; not shown: 6×His, N-terminal, cleaved; SUMO, N-terminal, cleaved

Experiments:
Conditions in all cases: both partners purified
[1] = biological target: T5, 6×His-ZapC double mutant (F30D, K94D) (Escherichia coli, UniProt P75862 1-180, F30D | K94D); assay: BLI; 6×His-ZapC or its mutants (0.5 µM) loaded on Ni-NTA biosensors; FtsZ or its variants in solution; Octet-Red96, 30°C, 1× Pol buffer (50 mM HEPES-NaOH pH 6.8, 50 mM KCl, 10 mM MgCl2); apparent Kd from the signal at the end of association, one-site fit
T5 construct: ZapC, Escherichia coli; The text calls it only 'the double mutant' after naming ZapC^F30D and ZapC^K94D; also called the double mutant; source: E. coli, derivative of pSD323, purified (Ni-NTA) as for FtsZ; not shown: 6×His, N-terminal, kept

[2] = biological target: B1; assay: as above
[3] = biological target: T1, FtsZ^F285S (untagged); assay: as above
[4] = biological target: T2, FtsZ (untagged, wild type); assay: BLI; 6×His-ZapC or its mutants (0.5 µM) loaded on Ni-NTA biosensors, untagged FtsZ or its variants in solution; Octet-Red96, 30°C, 1× Pol buffer (50 mM HEPES-NaOH pH 6.8, 50 mM KCl, 10 mM MgCl2); apparent Kd from the signal at the end of association against concentration, one-site fit; three repeats with mean (X) and SD
[5] = biological target: T3, 6×His-SUMO-FtsZ; assay: BLI; 6×His-SUMO fusions of FtsZ or its parts, or SUMO alone (0.5 µM), held on Ni-NTA biosensors, untagged ZapC in solution; Octet-Red96, 30°C, 1× Pol buffer (50 mM HEPES-NaOH pH 6.8, 50 mM KCl, 10 mM MgCl2); apparent Kd from the signal at the end of association against concentration, one-site fit; three repeats with mean (X) and SD
[6] = biological target: T4, SUMO-FtsZ; assay: BLI; SUMO fusions of FtsZ or its parts, or SUMO alone (0.5 µM), held on Ni-NTA biosensors; untagged ZapC in solution; Octet-Red96, 30°C, 1× Pol buffer; apparent Kd from the signal at the end of association, one-site fit
[7] = biological target: B4; assay: BLI; 6×His-SUMO fusions of FtsZ or its parts, or SUMO alone (0.5 µM), held on Ni-NTA biosensors, untagged ZapC in solution; Octet-Red96, 30°C, 1× Pol buffer (50 mM HEPES-NaOH pH 6.8, 50 mM KCl, 10 mM MgCl2); apparent Kd from the signal at the end of association against concentration, one-site fit; three repeats with mean (X) and SD
[8] = biological target: B5; assay: BLI; SUMO fusions of FtsZ or its parts, or SUMO alone (0.5 µM), held on Ni-NTA biosensors; untagged ZapC in solution; Octet-Red96, 30°C, 1× Pol buffer; apparent Kd from the signal at the end of association, one-site fit
[9] = biological target: B2; assay: BLI; 6×His-ZapC or its mutants (0.5 µM) loaded on Ni-NTA biosensors; FtsZ or its variants in solution; Octet-Red96, 30°C, 1× Pol buffer (50 mM HEPES-NaOH pH 6.8, 50 mM KCl, 10 mM MgCl2); apparent Kd from the signal at the end of association, one-site fit

B1
fold increase of Kd against wild-type ZapC [1]: 12 fold

B2
Kd [2]: 0.39 µM
Kd [3]: 6.37 µM

B3
Kd [4]: 6.39 µM and 5.16 µM and 4.77 µM and 5.44 µM

B4
Kd [5]: 1.5 µM and 1.28 µM and 1.9 µM and 1.56 µM

B5
Kd [6]: 1.5 µM

B6
Kd [7]: 11.2 µM and 10.4 µM and 8.11 µM and 9.89 µM

B7
Kd [8]: 10 µM

B8
fold decrease of affinity against wild-type FtsZ [9]: ~3 fold
